Read-outs that look alike come from different tables or passages of the source.
Assays:
[1] = tested on: HCT-15 human colorectal cancer cells; format: in vivo, BALB/c nude mice
Method: Athymic nude BALB/c mice (age of 6-8 weeks) were housed under sterile conditions with 12 hour light-dark cycle and provided with autoclaved feed ad libitum. The mice were acclimated for at least 1 week before the start of experiments. Each nude mouse was implanted with ˜3 mm^3 of in vivo maintained HCT-15 human colorectal cancer cells to the right axilla subcutaneously. When stable palpable tumours of ˜5 mm diameter were developed, the mice were randomly separated into five different groups (Table 6). Intraperitoneal administrations of arginase drugs or control vehicle (PBS) were given twice per week while 5-fluorouracil was given once per week starting from Day 0. Tumour dimensions (L: longest diameter and W: its perpendicular diameter) and body weights were measured on every Mondays, Wednesdays and Fridays with Vernier caliper. Tumour volume was calculated with the formula (½×L×W^2) and no. of fold increase in tumour volume (relative tumour volume) was calculated with reference to Day-0. The results were plotted against time. The mice were euthanized at the end of experiment or when tumour diameter reached 2.5 cm.

blood arginine = experiment: Pharmacodynamics: depletion of arginine in BALB/c normal mice; format: in vivo; details: plasma, single i.p. dose
Method: Pharmacodynamics of Cys^45 pegylated human arginase I and Cys^161 pegylated Bacillus caldovelox arginase were studied using BALB/c normal mice. The study was carried out in conjunction with the pharmacokinetic study (described below). Therefore, the protocol remained the same. Again, the blood samples collected was centrifuged immediately at 13,200 rpm for 5 minutes and the plasma layer were collected for further analysis using the Amino Acid Analyzer (Biochrom 30, Biochrom Ltd., England).

[2] = tested on: hepatocellular carcinoma Hep3B cells; format: in vivo, BALB/c nude mice; details: for effect on tumour growth (tumour volume) vs PBS control: 500 Units/mouse i.p. weekly for 8 weeks, HAI-PEG20 effect from Day 47 (p<0.01); for average body weight: mouse, in vivo, ip
Method: A number of BALB/c nude mice were injected with hepatocellular carcinoma Hep3B cells intraperitoneally (i.p.) and maintained in vivo. Then each of the 30 BALB/c nude mice was injected with ˜1×10^6 of the in vivo maintained cancer cells to the right axilla subcutaneously. When palpable tumours of 5 mm diameter were developed, the mice were separated into three different groups (see Table 3). Drugs or PBS buffer were administered intraperitoneally weekly starting on day 0 for 8 weeks. Body weights and tumour dimensions (L: length of the longer diameter and W: length of the shorter diameter of the tumour) were measured twice a week. Tumour volume (½×L×W^2) was calculated and plotted against time. After 60 days or when tumour diameter reached 2.5 cm, the mice were euthanized. Survival rates of the mice were recorded at the end of the study.

HIV-1 strain RF = experiment: HIV replication (virus inhibition) assay in H9 cells
MDA-MB-231 = experiment: Cell proliferation assay (MTT, Table 11); format: cell-based; details: MDA-MB-231 breast, 3 days
4T1 = experiment: Cell proliferation assay (MTT, Table 11); format: cell-based, mouse; details: 4T1 breast, 3 days
Method: 1×10^5 cells of a mouse metastatic breast cancer cell line (4T1) were injected orthotopically into the No. 4 inguinal mammary fat pad of wild-type BALB/c mice at the age of 6-8 weeks. When the tumors reached an average of 5 mm, the mice were divided into two different treatment groups (Table 7). BCA-PEG20 (250 U/mouse) or control vehicle (PBS) were injected intraperitoneally twice per week starting from Day 0. Body weight was measured every week. After three weeks, the mice were sacrificed and analyzed for the lung metastasis. The number of lung metastases was counted under a dissecting microscope after rinsing with PBS.
Cell Proliferation Assay: For each cancer cell line, cells (5×10^3) in 100 μL culture medium were seeded to the wells of a 96-well plate and incubated for 24 hours by standard method.

[3] = Steady-state kinetics of human arginase I with Mn2+ or Co2+ (DAMO assay); format: biochemical; details: for Km: sodium phosphate buffer pH 7.4, 25° C.
Method: Diacetylmonoxine (DAMO) assay was used to determine the kinetic parameters of human arginase with different metal cofactors. All enzymatic reactions were carried out at pH 7.4.

[4] = sodium phosphate buffer pH 7.4, 25° C.
Method: Either Bacillus caldovelox arginase (BCA) or the human arginase I (HAI) was expressed as described previously. The purification method was the same as described before except 10 mM of metal ion (CoSO4 or MnSO4) was added into the purified protein elution from Nickel affinity chromatography instead of added before Nickel affinity chromatography. Eluted factions containing the arginase enzyme were incubated with 10 mM metal for 15 min at 50˜55° C., followed by filtration through a 0.45 μm syringe filter. Then the solution was exchanged with storage buffer by ultrafiltration.
The mutant genes were cloned, expressed and purified for detailed studies.

Question: Which results are given for `O=c1[nH]cc(F)c(=O)[nH]1` [5-fluorouracil]?
Answer: effect on tumour growth vs control ([1]; arginases i.p. twice per week (BCA 500, BCA-PEG20 250 Units/mouse), 5-fluorouracil 10 mg/kg once per week): did not show significant tumour suppression; average body weight, last recorded ([1]; mouse, in vivo): 24.5 ± 1.4 g

B1: HAI-PEG20: Cys^45-specific mono-pegylated 6xHis-tagged human arginase I mutant (C168S/C303S) with single chain mPEG-maleimide (20 kDa) (conjugate, UniProt P05089 1-322, looked up, variant C168S C303S)
Arginase-1: MSAKSRTIGIIGAPFSKGQPRGGVEEGPTVLRKAGLLEKLKEQECDVKDYGDLPFADIPNDSPFQIVKNPRSVGKASEQLAGKVAEVKKNGRISLVLGGDHSLAIGSISGHARVHPDLGVIWVDAHTDINTPLTTTSGNLHGQPVSFLLKELKGKIPDVPGFSWVTPSISAKDIVYIGLRDVDPGEHYILKTLGIKYFSMTEVDRLGIGKVMEETLSYLLGRKKRPIHLSFDVDGLDPSFTPATGTPVVGGLTYREGLYITEEIYKTGLLSGLDIMEVNPSLGKTPEEVTRTVNTAVAITLASFGLAREGNHKPIDYLNPPK
modifications: 20 kDa mPEG-maleimide at Cys45; 6xHis tag
Question: For B1, which “time at which arginine started to appear after arginase administration” value (blood arginine) is on record?
Answer: Its value is 6.8 ± 2.3 days.

Question: And the arginine depletion (blood arginine; starting from 6 hr (Day 0))?
Answer: The arginine depletion was “totally depleted”.

Question: What about the ornithine level (blood arginine; stayed at high level up to Day 3) of the same molecule?
Answer: Its ornithine level is > 150 µM.

Question: What about the “effect on tumour growth (tumour volume) vs PBS control” value [2] of the same molecule?
Answer: Its value is “significantly reduced the rate of tumour growth”.

Question: And the average body weight [2]?
Answer: Its average body weight is 25.0 ± 0.2 g.

Question: And the “wells displaying cytopathic effect (positive wells/wells inoculated)” value (HIV-1 strain RF; 1 U/mL)?
Answer: The value was 8/8.

Question: What about the “wells displaying cytopathic effect (positive wells/wells inoculated)” value (HIV-1 strain RF; 10 U/mL) of the same molecule?
Answer: The value was 6/8.

Question: And the “wells displaying cytopathic effect (positive wells/wells inoculated)” value (HIV-1 strain RF; 50 U/mL)?
Answer: Its value is 3/8.

Question: And the “IC50 on HIV” value (HIV-1 strain RF; H9 cells, five days post infection, cytopathic effect)?
Answer: The value was “approximately 37 U/mL”.

B2: HAI: non-pegylated 6xHis-tagged recombinant human arginase I (protein, UniProt P05089 1-322, looked up)
Arginase-1: MSAKSRTIGIIGAPFSKGQPRGGVEEGPTVLRKAGLLEKLKEQECDVKDYGDLPFADIPNDSPFQIVKNPRSVGKASEQLAGKVAEVKKNGRISLVLGGDHSLAIGSISGHARVHPDLGVIWVDAHTDINTPLTTTSGNLHGQPVSFLLKELKGKIPDVPGFSWVTPCISAKDIVYIGLRDVDPGEHYILKTLGIKYFSMTEVDRLGIGKVMEETLSYLLGRKKRPIHLSFDVDGLDPSFTPATGTPVVGGLTYREGLYITEEIYKTGLLSGLDIMEVNPSLGKTPEEVTRTVNTAVAITLACFGLAREGNHKPIDYLNPPK
modifications: 6xHis tag
notes: non-pegylated 6xHis-tagged recombinant human arginase I
Question: With B2 as the molecule, how does the “effect on tumour growth (tumour volume) vs PBS control” value [2] read?
Answer: Its value is “did not show any significant effect”.

Question: What about the average body weight [2] of the same molecule?
Answer: Its average body weight is 25.5 ± 0.2 g.

Question: And the IC50 (MDA-MB-231)?
Answer: The IC50 was 0.273 U/mL.

Question: What about the IC50 (4T1) of the same molecule?
Answer: The IC50 was 0.058 U/mL.

B3: HAI Co^2+: recombinant human arginase I with cobalt replacing manganese as metal cofactor (protein, UniProt P05089 1-322, looked up)
Arginase-1: MSAKSRTIGIIGAPFSKGQPRGGVEEGPTVLRKAGLLEKLKEQECDVKDYGDLPFADIPNDSPFQIVKNPRSVGKASEQLAGKVAEVKKNGRISLVLGGDHSLAIGSISGHARVHPDLGVIWVDAHTDINTPLTTTSGNLHGQPVSFLLKELKGKIPDVPGFSWVTPCISAKDIVYIGLRDVDPGEHYILKTLGIKYFSMTEVDRLGIGKVMEETLSYLLGRKKRPIHLSFDVDGLDPSFTPATGTPVVGGLTYREGLYITEEIYKTGLLSGLDIMEVNPSLGKTPEEVTRTVNTAVAITLACFGLAREGNHKPIDYLNPPK
modifications: cobalt cofactor
Question: Which results are given for B3?
Answer: improvement of Km value vs HAI Mn^2+ ([3]; pH 7.4, 25° C.): about 10 fold; Km [3]: 190 µM

B4: HAI Mn^2+: recombinant human arginase I with Mn^2+ as metal cofactor (protein, UniProt P05089 1-322, looked up)
Arginase-1: MSAKSRTIGIIGAPFSKGQPRGGVEEGPTVLRKAGLLEKLKEQECDVKDYGDLPFADIPNDSPFQIVKNPRSVGKASEQLAGKVAEVKKNGRISLVLGGDHSLAIGSISGHARVHPDLGVIWVDAHTDINTPLTTTSGNLHGQPVSFLLKELKGKIPDVPGFSWVTPCISAKDIVYIGLRDVDPGEHYILKTLGIKYFSMTEVDRLGIGKVMEETLSYLLGRKKRPIHLSFDVDGLDPSFTPATGTPVVGGLTYREGLYITEEIYKTGLLSGLDIMEVNPSLGKTPEEVTRTVNTAVAITLACFGLAREGNHKPIDYLNPPK
modifications: Mn2+ cofactor
notes: recombinant human arginase I with Mn^2+ as metal cofactor
Question: For B4, which Km [3] is on record?
Answer: Its Km is 1830 µM.

B5: BCA mutant V20P Mn^2+ (protein, UniProt P53608 1-299, looked up, variant V20P)
Arginase: MKPISIIGVPMDLGQTRRGPDMGPSAMRYAGVIERLERLHYDIEDLGDIPIGKAERLHEQGDSRLRNLKAVAEANEKLAAAVDQVVQRGRFPLVLGGDHSIAIGTLAGVAKHYERLGVIWYDAHGDVNTAETSPSGNIHGMPLAASLGFGHPALTQIGGYSPKIKPEHVVLIGVRSLDEGEKKFIREKGIKIYTMHEVDRLGMTRVMEETIAYLKERTDGVHLSLDLDGLDPSDAPGVGTPVIGGLTYRESHLAMEMLAEAQIITSAEFVEVNPILDERNKTASVAVALMGSLFGEKLM
modifications: Mn2+
Question: For B5, which Km [4] is on record?
Answer: The Km was ~1290 µM.

B6: BCA mutant V20P Co^2+ (protein, UniProt P53608 1-299, looked up, variant V20P)
Arginase: MKPISIIGVPMDLGQTRRGPDMGPSAMRYAGVIERLERLHYDIEDLGDIPIGKAERLHEQGDSRLRNLKAVAEANEKLAAAVDQVVQRGRFPLVLGGDHSIAIGTLAGVAKHYERLGVIWYDAHGDVNTAETSPSGNIHGMPLAASLGFGHPALTQIGGYSPKIKPEHVVLIGVRSLDEGEKKFIREKGIKIYTMHEVDRLGMTRVMEETIAYLKERTDGVHLSLDLDGLDPSDAPGVGTPVIGGLTYRESHLAMEMLAEAQIITSAEFVEVNPILDERNKTASVAVALMGSLFGEKLM
modifications: Co2+
Question: Which Km [4] does the source give for B6 here?
Answer: Its Km is ~180 µM.

B7: BCAWTMn^2+: wild-type Bacillus caldovelox arginase with Mn^2+ (protein, UniProt P53608 1-299, looked up)
Arginase: MKPISIIGVPMDLGQTRRGVDMGPSAMRYAGVIERLERLHYDIEDLGDIPIGKAERLHEQGDSRLRNLKAVAEANEKLAAAVDQVVQRGRFPLVLGGDHSIAIGTLAGVAKHYERLGVIWYDAHGDVNTAETSPSGNIHGMPLAASLGFGHPALTQIGGYSPKIKPEHVVLIGVRSLDEGEKKFIREKGIKIYTMHEVDRLGMTRVMEETIAYLKERTDGVHLSLDLDGLDPSDAPGVGTPVIGGLTYRESHLAMEMLAEAQIITSAEFVEVNPILDERNKTASVAVALMGSLFGEKLM
modifications: Mn2+
Question: For B7, which Km [4] is on record?
Answer: Its Km is ~3200 µM.

Reference: patent US8507245B2, “Site-directed pegylation of arginases and the use thereof as anti-cancer and anti-viral agents” (priority 2009, dated 2013)
